Assay results reported in PMC8915838.

What was measured:
[1] = target: leukotriene A4 hydrolase (LTA4H) (UniProt P09960); test: SPR
[2] = target: leukotriene A4 hydrolase (LTA4H) (UniProt P09960); test: enzyme inhibition
plasmin = test: enzyme inhibition
trypsin = test: enzyme inhibition

For “MTX, immunosuppressant protein from the submandibular salivary glands of the bat Myotis pilosus (natural protein)”, the Kd [1] was 0.45 nM, the Ki [2] was 1230 nM and the Ki (plasmin) was 80 nM. It also gave a Ki (trypsin) of 67.5 nM.
